Key:
[1] = biological target: full length human TSHR with mutation Arg255 Asp (human) (UniProt P16473); test: TSHR260-AP bridge ELISA, Arg255 Asp TSHR on wells; IgG at 0.05 µg/mL in HBD
[2] = biological target: full length human TSHR with mutation Arg255 Asp (human) (UniProt P16473); test: TSHR260-AP bridge ELISA, Arg255 Asp TSHR on wells; IgG at 0.01 µg/mL in HBD
[3] = biological target: TSHR260-alkaline phosphatase (TSHR260-AP) (human) (UniProt P05187); test: TSHR260-AP bridge ELISA, full length TSHR on wells; 0.005 µg/mL, diluted in assay buffer
[4] = biological target: full length wild type human TSHR (human) (UniProt P16473); test: TSHR260-AP bridge ELISA, wild type TSHR on wells; IgG at 1 µg/mL in HBD
[5] = biological target: full length wild type human TSHR (human) (UniProt P16473); test: TSHR260-AP bridge ELISA, wild type TSHR on wells; IgG at 0.05 µg/mL in HBD
[6] = biological target: full length human TSHR with mutation Arg255 Asp (human) (UniProt P16473); test: TSHR260-AP bridge ELISA, Arg255 Asp TSHR on wells; IgG at 1 µg/mL in HBD
[7] = biological target: TSHR260-alkaline phosphatase (TSHR260-AP) (human) (UniProt P05187); test: TSHR260-AP bridge ELISA, full length TSHR on wells; 0.005 µg/mL, diluted in HBD
[8] = biological target: TSHR260-alkaline phosphatase (TSHR260-AP) (human) (UniProt P05187); test: TSHR260-AP bridge ELISA, full length TSHR on wells; 0.1 µg/mL, diluted in assay buffer
[9] = biological target: TSHR260-alkaline phosphatase (TSHR260-AP) (human) (UniProt P05187); test: TSHR260-AP bridge ELISA, full length TSHR on wells; 0.5 µg/mL, diluted in HBD
[10] = biological target: full length wild type human TSHR (human) (UniProt P16473); test: TSHR260-AP bridge ELISA, wild type TSHR on wells; IgG at 0.01 µg/mL in HBD
[11] = biological target: full length human TSHR with mutation Arg255 Asp (human) (UniProt P16473); test: TSHR260-AP bridge ELISA, Arg255 Asp TSHR on wells; IgG at 0.1 µg/mL in HBD
[12] = biological target: TSH receptor (TSHR), full length human, coated on tubes (human) (UniProt P16473); test: inhibition of 125I-TSH binding to TSHR coated tubes; 0.01 µg/mL, diluted in HBD serum pool
[13] = biological target: TSH receptor (TSHR), full length human, coated on tubes (human) (UniProt P16473); test: inhibition of 125I-TSH binding to TSHR coated tubes; 0.1 µg/mL, diluted in assay buffer
[14] = biological target: TSH receptor (TSHR), full length human, coated on tubes (human) (UniProt P16473); test: inhibition of 125I-TSH binding to TSHR coated tubes; 1 µg/mL, diluted in HBD serum pool
[15] = biological target: TSHR with Lys209 mutated to Ala (human) (UniProt P16473); test: cell-based or functional assay
[16] = biological target: wild type TSHR (human) (UniProt P16473); test: cell-based or functional assay
[17] = biological target: TSHR with Asp232 mutated to Ala expressed in CHO cells (human) (UniProt P16473); test: cell-based or functional assay
[18] = biological target: wild type TSHR expressed in CHO cells (human) (UniProt P16473); test: cell-based or functional assay
[19] = biological target: human thyroid stimulating hormone receptor (TSHR), full length (human) (UniProt P16473); test: 125I-K1-70 Fab (competitor) binding to TSHR coated tubes; test sample 10 µg/mL in HBD serum
[20] = biological target: human thyroid stimulating hormone receptor (TSHR), full length (human) (UniProt P16473); test: 125I-K1-70 Fab (competitor) binding to TSHR coated tubes; test sample 0.1 µg/mL in HBD serum
[21] = biological target: thyroid stimulating hormone receptor (full length human TSHR) (human) (UniProt P16473); test: ELISA, inhibition of TSH-biotin binding to TSHR coated wells; 100 µg/mL, diluted in assay buffer
[22] = biological target: human thyroid stimulating hormone receptor (TSHR), full length (human) (UniProt P16473); test: 125I-K1-70 Fab (competitor) binding to TSHR coated tubes; test sample 100 µg/mL in HBD serum
[23] = biological target: thyroid stimulating hormone receptor (TSHR), full length, coated on tubes (human) (UniProt P16473); test: inhibition of 125I-TSH binding, TSHR coated tubes; antibody 10 µg/mL in HBD serum pool
[24] = biological target: human thyroid stimulating hormone receptor (TSHR), full length (human) (UniProt P16473); test: 125I-K1-70 Fab (competitor) binding to TSHR coated tubes; test sample 10 µg/mL in assay buffer
[25] = biological target: human thyroid stimulating hormone receptor (TSHR), full length (human) (UniProt P16473); test: 125I-K1-70 Fab (competitor) binding to TSHR coated tubes; test sample 0.1 µg/mL in assay buffer
[26] = biological target: human thyroid stimulating hormone receptor (TSHR), full length (human) (UniProt P16473); test: 125I-K1-70 Fab (competitor) binding to TSHR coated tubes; test sample 1 µg/mL in HBD serum

M22 IgG (antibody), sequence (VH): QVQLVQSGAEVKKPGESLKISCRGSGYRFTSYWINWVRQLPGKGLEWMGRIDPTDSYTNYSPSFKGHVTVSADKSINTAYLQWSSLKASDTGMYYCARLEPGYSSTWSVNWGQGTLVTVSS
M22 IgG (antibody), sequence (V domain): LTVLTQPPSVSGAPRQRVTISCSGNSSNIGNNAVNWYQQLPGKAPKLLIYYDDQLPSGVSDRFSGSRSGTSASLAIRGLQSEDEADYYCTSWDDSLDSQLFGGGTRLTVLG

Molecule	Mean absorbance at 405 nm (absorbance at 405 nm) [1]	Mean absorbance at 405 nm (absorbance at 405 nm) [2]	Mean absorbance at 405 nm (absorbance at 405 nm) [3]	Mean absorbance at 405 nm (absorbance at 405 nm) [4]	Mean absorbance at 405 nm (absorbance at 405 nm) [5]	Mean absorbance at 405 nm (absorbance at 405 nm) [6]	Mean absorbance at 405 nm (absorbance at 405 nm) [7]	Mean absorbance at 405 nm (absorbance at 405 nm) [8]	Mean absorbance at 405 nm (absorbance at 405 nm) [9]	Mean absorbance at 405 nm (absorbance at 405 nm) [10]	Mean absorbance at 405 nm (absorbance at 405 nm) [11]	Inhibition of binding (%) [12] [%]	Inhibition of binding (%) [13] [%]	Inhibition of binding (%) [14] [%]	Inhibition of binding (%) [19] [%]	Inhibition of binding (%) [20] [%]	Inhibition of binding (%) [21] [%]	Inhibition of binding (%) [22] [%]	Inhibition of binding (%) [23] [%]	Inhibition of binding (%) [24] [%]	other results
TSH (ligand)																					% inhibition of TSH stimulation, TSH (2) run at the end of assay, mutated TSHR [15]: 18%; Cyclic AMP produced (pmol/mL), TSH 3 ng/mL, mutated TSHR [15]: 57.9 pmol/mL; Cyclic AMP produced (pmol/mL), TSH (2) 3 ng/mL run at the end of assay, mutated TSHR [15]: 47.7 pmol/mL; Mutated/wild type (%) of cyclic AMP produced; TSH 3 ng/mL [15]: 73%; Mutated/wild type (%) of cyclic AMP produced; TSH (2) 3 ng/mL, run at the end of assay [15]: 52%; Cyclic AMP produced (pmol/mL), TSH 3 ng/mL, wild type TSHR [16]: 79 pmol/mL; Cyclic AMP produced (pmol/mL), TSH (2) 3 ng/mL run at the end of assay, wild type TSHR [16]: 91.5 pmol/mL; % inhibition of TSH stimulation; TSH (2), run at the end of assay [17]: 0%; Mutated/wild type (%) of cyclic AMP produced; TSH 3 ng/mL [17]: 70%; Mutated/wild type (%) of cyclic AMP produced; TSH (2) 3 ng/mL, run at the end of assay [17]: 76%; % inhibition of TSH stimulation; TSH (2), run at the end of assay [18]: 0%
5C9 IgG (antibody, from another filing, V domains shown) VH: EVQLVESGGGLIQPGGSLRLSCAASGFTVSSNYMSWVRQAPGKGLEWVSVTYSGGSTSYADSVKGRFTISRDNSKNTLYLQMNSLRAEDTAVYYCARGGRYCSSISCYARSGCDYWGQGTLVTVSS VL: AIQMTQSPSSLSASVGDRVTITCRASQSISNYLNWYQQKPGKAPKLLIYAASSLQSGVPSRFSGSGSGTDFTLTISSLQPEDFATYYCQQSYSSPSTTFGQGTKLEIK			-0.009				0.02	-0.013	0.016						20.7	6	54.3	40.6	40.9	80.4	Inhibition of binding (%) [25]: 21.9%; Inhibition of binding (%) [26]: 8.1%

Second part, led by results:

Mean absorbance at 405 nm (absorbance at 405 nm) [1]	Mean absorbance at 405 nm (absorbance at 405 nm) [2]	Mean absorbance at 405 nm (absorbance at 405 nm) [3]	Mean absorbance at 405 nm (absorbance at 405 nm) [4]	Mean absorbance at 405 nm (absorbance at 405 nm) [5]	Mean absorbance at 405 nm (absorbance at 405 nm) [6]	Mean absorbance at 405 nm (absorbance at 405 nm) [7]	Mean absorbance at 405 nm (absorbance at 405 nm) [8]	Mean absorbance at 405 nm (absorbance at 405 nm) [9]	Mean absorbance at 405 nm (absorbance at 405 nm) [10]	Mean absorbance at 405 nm (absorbance at 405 nm) [11]	Inhibition of binding (%) [12] [%]	Inhibition of binding (%) [13] [%]	Inhibition of binding (%) [14] [%]	Inhibition of binding (%) [19] [%]	Inhibition of binding (%) [20] [%]	Inhibition of binding (%) [21] [%]	Inhibition of binding (%) [22] [%]	Inhibition of binding (%) [23] [%]	Inhibition of binding (%) [24] [%]	Molecule	other results
0.017	-0.002	0.075	1.17	0.332	0.34	0.045	0.653	0.657	0.064	0.05	-0.3									M22 IgG (antibody)	
							-0.013	-0.001				-5	-4.9							5B3 IgG (antibody)	% inhibition of TSH stimulation, 5B3 10 µg/mL, mutated TSHR [15]: 2%; % inhibition of TSH stimulation, 5B3 100 µg/mL, mutated TSHR [15]: 3%; Cyclic AMP produced (pmol/mL), 5B3 10 µg/mL + TSH 3 ng/mL, mutated TSHR [15]: 56.5 pmol/mL; Cyclic AMP produced (pmol/mL), 5B3 100 µg/mL + TSH 3 ng/mL, mutated TSHR [15]: 55.9 pmol/mL; Mutated/wild type (%) of cyclic AMP produced; 5B3 10 µg/mL + TSH 3 ng/mL [15]: 74%; Mutated/wild type (%) of cyclic AMP produced; 5B3 100 µg/mL + TSH 3 ng/mL [15]: 64%; % inhibition of TSH stimulation, 5B3 10 µg/mL, wild type TSHR [16]: 3%; Cyclic AMP produced (pmol/mL), 5B3 10 µg/mL + TSH 3 ng/mL, wild type TSHR [16]: 76.6 pmol/mL; Cyclic AMP produced (pmol/mL), 5B3 100 µg/mL + TSH 3 ng/mL, wild type TSHR [16]: 87.7 pmol/mL; % inhibition of TSH stimulation; 5B3 10 µg/mL [17]: 10%; % inhibition of TSH stimulation; 5B3 100 µg/mL [17]: 6%; Mutated/wild type (%) of cyclic AMP produced; 5B3 10 µg/mL + TSH 3 ng/mL [17]: 59%; Mutated/wild type (%) of cyclic AMP produced; 5B3 100 µg/mL + TSH 3 ng/mL [17]: 58%; % inhibition of TSH stimulation; 5B3 10 µg/mL [18]: 0%; % inhibition of TSH stimulation; 5B3 100 µg/mL [18]: 0%
0.02	-0.004		0.329	0.056	0.322				0.011	0.053	3.6	48.3	50.8	47.7	12.7	86.8	55.7	60.5	48	9D33 IgG (antibody)	Inhibition of binding (%) [25]: 29.7%; Inhibition of binding (%) [26]: 38.8%

— patent US20110300138A1 (published 2011)
